Measurements as given in publication PMC3578932, “In Vitro Characterization of Echinomycin Biosynthesis: Formation and Hydroxylation of L-Tryptophanyl-S-Enzyme and Oxidation of (2S,3S) β-Hydroxytryptophan” (PLoS ONE, 2013).
Blank lines part the entries; values can stand above or below the molecule they belong to.

Tests used:
[1] = molecular target: tryptophan 2,3-dioxygenase Qui17 (Streptomyces griseovariabilis subsp. bandungensis subsp. nov); test: SEC; purified His-tagged Qui17; data not shown
[2] = molecular target: T1, Qui5 and holo-Qui18 coexpression product (complex) (Streptomyces griseovariabilis, UniProt G9JKM4); test: Q-TOF-MS of amino acid loading onto holo-Qui18; assay type: biochemical; conditions: covalent; thioester to 4'-phosphopantetheine of the PCP domain; 5 mM L-tryptophan, 5 mM ATP, 10 mM MgCl2, 2 mM DTT, pH 8.0, 27°C, 2 hr
T1 construct: full-length A-PCP didomain Qui18 (611 aa) and Qui5 (71 aa), both His6-tagged, coexpressed in E. coli BL21(DE3) with B. subtilis sfp; holo form 64,836 Da (4'-phosphopantetheine on PCP Ser); hetero-tetramer about 160 kD; with MbtH-like protein

[3] = molecular target: A-PCP didomain NRPS protein Qui18 (Streptomyces griseovariabilis subsp. bandungensis subsp. nov) (UniProt G9JKM4); test: SEC; copurified His6-tagged Qui5 and Qui18 from coexpression; peak at around 160 kD; fraction analysed by SDS-PAGE (data not shown); conditions: scale: subunits of Qui5 with 2 subunits of Qui18

stoichiometry N [1]: 4
Molecule: tryptophan 2,3-dioxygenase Qui17 (enzyme)

Molecule: N[C@@H](Cc1c[nH]c2ccccc12)C(=O)O [L-tryptophan]
Q-TOF-MS of amino acid loading onto holo-Qui18 [2]: Qui18 recognized L-tryptophan as its substrate and its function depended on the association with Qui5

stoichiometry N [3]: 2
Molecule: MbtH-like protein Qui5 (natural protein)
